Patent US20260069707A1, “COMBINATION THERAPY WITH ANTIBODY-DRUG CONJUGATES AND HYALURONIDASES” (HALOZYME, INC., priority 2024, published 2026)
Values joined by “and” are separate entries in the source; they are usually repeats but may differ in a detail not shown here. Equal values may be shown once.

Experiments:
[1] = Serum PK of Enhertu: total antibody, total ADC, free payload (HPLC-MS/MS), IV vs SC vs SC + rHuPH20; conditions: for TADC/TAB Ratio: listed as ADC
Description: Serum concentrations of total ADC, total antibody and Free Payload (unconjugated deruxtecan) were determined in three separate assays using HPLC with MS/MS detection.
A 20.0-μL sample aliquot was diluted 10-fold. A portion of the diluted sample was taken and processed using an immunoaffinity approach. […] The bound proteins were subjected to “on-bead” proteolysis with trypsin. After trypsin digestion, the samples were split into two portions. One portion used the characteristic peptide fragments produced from the trypsin digestion to quantitate total antibody. The second portion was further digested using papain to hydrolyze Dxd from the antibody to quantitate total ADC.
VVSV was used for the quantitation of total antibody concentrations, DSTY was used for the quantitation of intact antibody (troubleshooting purposes only), and Dxd was used for quantitating Total ADC concentrations.
A nominal free Dxd, concentration range of […] was chosen to quantitate samples. This assay requires a 50.0 μL porcine serum and skin aliquot. Samples were kept frozen at −80° C. prior to analysis.
A matrix aliquot is fortified with internal standard. Analytes are isolated through acidified protein precipitation. The eluate is evaporated under a nitrogen stream, and the remaining residue is reconstituted. Final extracts are analyzed via HPLC MS/MS detection using positive ion electrospray.

[2] = Qualitative assessment of local injection sites (erythema, swelling size, induration); assay type: in vivo, Yucatan miniature pig (Sus scrofa domestica)
Description: The needle was inserted vertically into the marked injection site and the HVAI held in place by hand. Target needle insertion depth was ˜10 mm. Injections were timed using a stopwatch. Upon completion of the injection the needle was removed and the HVAI device discarded. Test solution back-leakage was then absorbed to a tared eye-spear for 30 seconds on the injection site and the weight of the eye spear was measured using an analytical balance. The margins of the injection site bleb were marked with a permanent marker and measured for length, width, and height using a digital caliper and recorded then photographed with the standard and 3D cameras. Caliper measurements and photographs were taken immediately post-injection. Local injection sites were qualitatively assessed and graded daily for erythema severity, swelling size appearance, and firmness, using a scoring system described in Table 4 Table 5, and Table 6, respectively.
Approximately, 24 hours post-dosing of the first injection, each animal was re-anesthetized, and injection sites assessed for erythema, induration and swelling, then photographed and returned to its cage.

[3] = Example 5: post-injection, 10 mL SC by HVAI

Sacituzumab govitecan [Trodelvy]
Relative difference in serum AUC0-7, Free Payload, vs. ADC-IV ([1]; SC vs. ADC-IV): 83%
Relative difference in serum AUC0-7, TAB, vs. ADC-IV ([1]; SC vs. ADC-IV): 59%
Relative difference in serum AUC0-7, TADC, vs. ADC-IV ([1]; SC vs. ADC-IV): 60%
Relative difference in serum Cmax, Free Payload, vs. ADC-IV ([1]; SC vs. ADC-IV): 70%
Relative difference in serum Cmax, TAB, vs. ADC-IV ([1]; SC vs. ADC-IV): 28%
Relative difference in serum Cmax, TADC, vs. ADC-IV ([1]; SC vs. ADC-IV): 29%
TADC/TAB ratio - serum, mean ([1]; SC, 6 h): 1.054
TADC/TAB ratio - serum, mean ([1]; SC, 24 h): 1.195
TADC/TAB ratio - serum, mean ([1]; SC, 48 h): 0.796
TADC/TAB ratio - serum, mean ([1]; SC, 72 h): 0.806
TADC/TAB ratio - serum, mean ([1]; SC, 96 h): 0.765
TADC/TAB ratio - serum, mean ([1]; SC, 168 h): 1.028
SC/IV, mean AUC0-7, ADC ([1]; minipig serum): 60%
SC/IV, mean AUC0-7, Ab ([1]; minipig serum): 59%
SC/IV, mean AUC0-7, Payload ([1]; minipig serum): 83%
SC/IV, mean Cmax, ADC ([1]; minipig serum): 29%
SC/IV, mean Cmax, Ab ([1]; minipig serum): 28%
SC/IV, mean Cmax, Payload ([1]; minipig serum): 70%
ADC/Ab ratio, mean AUC0-7 ([1]; minipig serum, IV): 86%
ADC/Ab ratio, mean Cmax ([1]; minipig serum, IV): 93%
ADC/Payload ratio, mean AUC0-7 ([1]; minipig serum, IV): 116066%
ADC/Payload ratio, mean Cmax ([1]; minipig serum, IV): 201037%
ADC/Ab ratio, mean AUC0-7 ([1]; minipig serum, SC): 87%
ADC/Ab ratio, mean Cmax ([1]; minipig serum, SC): 96%
ADC/Ab ratio, mean Tmax ([1]; minipig serum, SC): 60%
ADC/Payload ratio, mean AUC0-7 ([1]; minipig serum, SC): 83512%
ADC/Payload ratio, mean Cmax ([1]; minipig serum, SC): 83474%
ADC/Payload ratio, mean Tmax ([1]; minipig serum, SC): 57%
AUC0-7, free payload in serum ([1]; pig, in vivo, iv): 0.04 µg·days/mL
AUC0-7, total ADC in serum ([1]; pig, in vivo, iv): 47.73 µg·days/mL
AUC0-7, total antibody in serum ([1]; pig, in vivo, iv): 55.38 µg·days/mL
AUC0-7 free payload ([1]; pig, in vivo, iv): 0.04 µg·days/mL
AUC0-7 total ADC (TADC) ([1]; pig, in vivo, iv): 47.73 µg·days/mL
AUC0-7 total antibody (TAB) ([1]; pig, in vivo, iv): 55.38 µg·days/mL
Cmax free payload ([1]; pig, in vivo, iv): 10 ng/mL
Cmax total ADC (TADC) ([1]; pig, in vivo, iv): 25120 ng/mL
Cmax total antibody (TAB) ([1]; pig, in vivo, iv): 27000 ng/mL
Cmax, free payload in serum ([1]; pig, in vivo, iv): 10 ng/mL
Cmax, total ADC in serum ([1]; pig, in vivo, iv): 25120 ng/mL
Cmax, total antibody in serum ([1]; pig, in vivo, iv): 27000 ng/mL
Tmax free payload ([1]; pig, in vivo, iv): 0 h
Tmax total ADC (TADC) ([1]; pig, in vivo, iv): 0 h
Tmax total antibody (TAB) ([1]; pig, in vivo, iv): 0 h
Tmax, free payload in serum ([1]; pig, in vivo, iv): 0 h
Tmax, total ADC in serum ([1]; pig, in vivo, iv): 0 h
Tmax, total antibody in serum ([1]; pig, in vivo, iv): 0 h
Total ADC concentration in the serum of minipigs ([1]; pig, in vivo, iv, 0 h): 25.12 µg/mL
Total ADC Result ([1]; pig, in vivo, iv, 5 mL): <0.100 µg/mL
Total ADC concentration in the serum of minipigs ([1]; pig, in vivo, iv, 5 mL, 6 h): 21.40 µg/mL
Total ADC concentration in the serum of minipigs ([1]; pig, in vivo, iv, 5 mL, 24 h): 12.80 µg/mL
Total ADC Result ([1]; pig, in vivo, iv, 6 h): 21.4 µg/mL
Total ADC Result ([1]; pig, in vivo, iv, 24 h): 12.8 µg/mL
Total ADC Result ([1]; pig, in vivo, iv, 48 h): 7.28 µg/mL
Total ADC concentration in the serum of minipigs ([1]; pig, in vivo, iv, 48 h): 7.28 µg/mL
Total ADC Result ([1]; pig, in vivo, iv, 72 h): 5.04 µg/mL
Total ADC concentration in the serum of minipigs ([1]; pig, in vivo, iv, 72 h): 5.04 µg/mL
Total ADC Result ([1]; pig, in vivo, iv, 96 h): 3.91 µg/mL
Total ADC concentration in the serum of minipigs ([1]; pig, in vivo, iv, 96 h): 3.91 µg/mL
Total ADC Result ([1]; pig, in vivo, iv, 168 h): 1.70 µg/mL
Total ADC concentration in the serum of minipigs ([1]; pig, in vivo, iv, 168 h): 1.70 µg/mL
Tmax total ADC (TADC) ([1]; pig, in vivo, sc): 24 h
Tmax, total ADC in serum ([1]; pig, in vivo, sc): 24 h
Total ADC Result ([1]; pig, in vivo, sc, 0 h): <0.100 µg/mL
Total ADC concentration in the serum of minipigs ([1]; pig, in vivo, sc, 5 mL, 6 h): 4.08 µg/mL
Total ADC concentration in the serum of minipigs ([1]; pig, in vivo, sc, 5 mL, 24 h): 7.27 µg/mL
Total ADC concentration in the serum of minipigs ([1]; pig, in vivo, sc, 48 h): 5.17 µg/mL
Total ADC concentration in the serum of minipigs ([1]; pig, in vivo, sc, 72 h): 4.35 µg/mL
Total ADC concentration in the serum of minipigs ([1]; pig, in vivo, sc, 96 h): 3.74 µg/mL
Total ADC concentration in the serum of minipigs ([1]; pig, in vivo, sc, 168 h): 2.04 µg/mL
TADC/Free Payload, AUC0-7 ([1]; serum, IV): 116066%
TADC/Free Payload, Cmax ([1]; serum, IV): 201037%
TADC/TAB, AUC0-7 ([1]; serum, IV): 86%
TADC/TAB, Cmax ([1]; serum, IV): 93%
TADC/TAB Ratio ([1]; serum, IV, 6 h, individual animal): 0.92 and 0.918
TADC/TAB Ratio ([1]; serum, IV, 24 h, individual animal): 0.87 and 0.871
TADC/TAB Ratio ([1]; serum, IV, 48 h, individual animal): 0.80 and 0.804
TADC/TAB Ratio ([1]; serum, IV, 72 h, individual animal): 0.88 and 0.877
TADC/TAB Ratio ([1]; serum, IV, 96 h, individual animal): 0.77 and 0.773
TADC/TAB Ratio ([1]; serum, IV, 168 h, individual animal): 0.99 and 0.994
TADC/Free Payload, AUC0-7 ([1]; serum, SC): 83512%
TADC/Free Payload, Cmax ([1]; serum, SC): 83474%
TADC/Free Payload, Tmax ([1]; serum, SC): 57%
TADC/TAB, AUC0-7 ([1]; serum, SC): 87%
TADC/TAB, Cmax ([1]; serum, SC): 96%
TADC/TAB, Tmax ([1]; serum, SC): 60%
TADC/TAB Ratio ([1]; serum, SC, 6 h, individual animals): 1.01 and 1.13 and 1.03 and 1.006 and 1.129 and 1.026
TADC/TAB Ratio ([1]; serum, SC, 24 h, individual animals): 1.55 and 0.84 and 1.19 and 1.546 and 0.845 and 1.194
TADC/TAB Ratio ([1]; serum, SC, 48 h, individual animals): 0.81 and 0.82 and 0.76 and 0.808 and 0.823 and 0.756
TADC/TAB Ratio ([1]; serum, SC, 72 h, individual animals): 0.76 and 0.72 and 0.93 and 0.763 and 0.721 and 0.934
TADC/TAB Ratio ([1]; serum, SC, 96 h, individual animals): 0.74 and 0.73 and 0.82 and 0.744 and 0.731 and 0.819
TADC/TAB Ratio ([1]; serum, SC, 168 h, individual animals): 1.20 and 0.89 and 0.99 and 1.204 and 0.891 and 0.989
Induration (score) [2, 3]: 3.3 ± 0.3
Swelling Size (score) [2, 3]: 3.1 ± 0.3
Induration at the 24, 48 or 72 hour timepoints ([2]; minipig, 10 mL SC by HVAI): No induration was detected
Swelling at the 24, 48 or 72 hour timepoints ([2]; minipig, 10 mL SC by HVAI): No swelling was detected
Swelling Score (Mean ± SEM) ([2]; minipig, 10 mL SC by HVAI, immediately post-injection, three evaluators, scale 0-4): 3.1 ± 0.3
Induration Score (Mean ± SEM) ([2]; minipig, 10 mL SC by HVAI, immediately post-injection, two evaluators, scale 0-4): 3.3 ± 0.3
Hardness (induration) of post-injection blebs compared with blebs of the co-mix with rHuPH20 ([2]; p<0.05, 10 mL SC): significantly firmer
